Measured values from article PMC5025751.

What was measured:
[1] = target: Fascin-bundled F-actin filaments (rabbit | not stated) (UniProt P68135); test: transient kinetics, quenching of pyrene-actin fluorescence; myosin rapidly mixed with MgATP, then with pyrene-labelled actin (0-50 uM; single filaments or fascin bundles) with high MgADP to stop further cycling
[2] = target: Actin purified from rabbit skeletal muscle (F-actin filaments) (rabbit) (UniProt P68135); test: as above
[3] = target: myosin X anti-parallel coiled-coil (Homo sapiens) (UniProt Q9HD67); conditions: cited from earlier work

rate of pyrene-actin fluorescence quenching [1] [s⁻¹]	rate of pyrene-actin fluorescence quenching [2] [s⁻¹]	Substance	Kd [3] [nM]
17	18	Human myosin X MD-3IQ-SAH (S1, truncated at Gln 851) (from UniProt Q9HD67 1-851; P0DP23 1-149) (complex)	
34	19	MyoX-HMM-A938 (truncated human Myo10 HMM, amino acids 1-938, 19 amino-acid linker, Leucine zipper, AVI tag, Flag tag) (from UniProt Q9HD67 1-938; P0DP23 1-149) (complex)	
		myosin X anti-parallel coiled-coil (from UniProt Q9HD67)	600
